The text below walks through data of patent US20110065645A1, “Compositions and Methods for Modulating Neuron Degeneration and Neuron Guidance” (The Regents of the University of California, priority 2009, published 2011).

The subject of this experiment is cortical neurons. Nature of the experiment: Cortical neuron death/survival assay under PKCζ inhibition (Tuj1, TUNEL, DAPI staining). It is filed as cell-based. The source says: 1. PKCζ is required for survival of cortical neurons. E15.5 cortical neurons were dissociated and cultured for 2 days in the presence of various concentrations of a cell membrane penetrating myristoylated peptide derived in the pseudosubstrate domain of PKC (FIGS. 12A-12D). This peptide is a specific inhibitor of PKCζ.
2. Axon degeneration procedes cell body death when PKC is inhibited. We examined the timing of axon degeneration and cell body death. […] The death induced by PKCζ inhibition is much faster than Aβ peptide induced neuronal death (FIG. 12D), probably because the PKCζ is an essential kinase and peptide inhibition causes instant death, whereas Aβ has to bind to cell surface receptor and trigger a signaling cascade to cause death, which requires a longer time.
3. Wnts are trophic factors for cortical neurons. […] Nuclear shrinkage (pyknosis) is a hallmark of neuronal cell death. Using DAPI staining, we can visualize the cell nuclei (FIG. 14B). […] Initial cortical axons and dendrite form and grow but axons start to disintegrate at E18.5 (FIG. 14D, from Wang et al 2006),^(13) (FIGS. 12F, 12K). Based on our preliminary results, we propose that Wnts are not only axon guidance molecules but also regulate neuronal survival and axon degeneration acting via PKC (FIG. 15).
3. Survival and cell death assays for screening of monoclonal antibodies and small compounds. We use the same cell death/survival assay as described in FIGS. 12A-14D and use microtubule staining to analyze the integrity of microtubules, DAPI stain to measure the size of cell nuclei and TUNEL staining to assay cell death. Microtubule disassembly is quantified by staining intensity of Tuj1 and Tau antibodies. The size of cell nuclei is binned into difference sizes and the distribution of the nuclei size is used as quantification of pyknosis (FIG. 14C).

B1: Wnt5a: recombinant Wnt5a protein (R&D Systems) (protein, UniProt P41221 62-380, looked up)
Protein Wnt-5a: IIGAQPLCSQLAGLSQGQKKLCHLYQDHMQYIGEGAKTGIKECQYQFRHRRWNCSTVDNTSVFGRVMQIGSRETAFTYAVSAAGVVNAMSRACREGELSTCGCSRAARPKDLPRDWLWGGCGDNIDYGYRFAKEFVDARERERIHAKGSYESARILMNLHNNEAGRRTVYNLADVACKCHGVSGSCSLKTCWLQLADFRKVGDALKEKYDSAAAMRLNSRGKLVQVNSRFNSPTTQDLVYIDPSPDYCVRNESTGSLGTQGRLCNKTSEGMDGCELMCCGRGYDQFKTVQTERCHCKFHWCCYVKCKKCTEIVDQFVCK
For B1, under “5 um pseudosubstrate peptide”, the “axon degeneration / reduction of microtubule staining (Tuj1)” value is “much less degeneration was seen”. Besides, for the setting “10 um pseudosubstrate peptide”, the “axons remaining judged by Tuj1 staining” value is recorded as “more axons still remain”. Moreover, the “cell death induced by PKC inhibition” value (pretreatment before pseudosubstrate peptide) is on record as “block/reduce the cell death”.
